What all share (assay): SPR, antibody captured, C2 as analyte;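 note: biacore SPR at 37 °C, anti-C2 mAbs captured via goat anti-human IgG on CM5 chips, double-referenced sensorgrams fit to a 1:1 kinetic or steady-state model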
Background: Surface plasmon resonance follows binding to a sensor surface in real time, without labels.

In one assay the target is T1, human C2 D454A (human, UniProt P06681 21-752).
T1 sequence: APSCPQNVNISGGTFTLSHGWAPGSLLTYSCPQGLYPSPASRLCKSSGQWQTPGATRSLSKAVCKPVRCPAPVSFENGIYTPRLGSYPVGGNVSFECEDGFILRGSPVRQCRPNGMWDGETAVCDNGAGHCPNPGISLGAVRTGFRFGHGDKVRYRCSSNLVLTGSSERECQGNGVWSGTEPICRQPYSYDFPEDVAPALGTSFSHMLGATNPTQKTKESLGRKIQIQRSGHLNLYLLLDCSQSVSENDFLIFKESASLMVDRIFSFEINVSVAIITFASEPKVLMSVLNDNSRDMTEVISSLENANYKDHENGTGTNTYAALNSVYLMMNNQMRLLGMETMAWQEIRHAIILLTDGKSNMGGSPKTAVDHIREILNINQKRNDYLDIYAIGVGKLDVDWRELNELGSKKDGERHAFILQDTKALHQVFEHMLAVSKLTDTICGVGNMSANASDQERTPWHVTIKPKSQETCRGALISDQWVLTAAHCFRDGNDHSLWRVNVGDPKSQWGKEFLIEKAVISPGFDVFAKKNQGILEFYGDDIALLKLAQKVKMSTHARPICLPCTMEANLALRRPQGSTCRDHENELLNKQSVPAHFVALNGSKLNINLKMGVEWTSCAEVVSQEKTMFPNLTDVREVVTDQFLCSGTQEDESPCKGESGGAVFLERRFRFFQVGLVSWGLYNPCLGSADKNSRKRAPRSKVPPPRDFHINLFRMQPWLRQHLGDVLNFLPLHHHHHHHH

The target of another assay is T2, human C2 N621A (human, UniProt P06681 21-752).
T2 sequence: T1 sequence with A434D, N601A

A further assay concerns the target T3, human C2 S473A (human, UniProt P06681 21-752).
T3 sequence: T1 sequence with A434D, S453A

In a further assay the target is T4, human C2 I438A (human, UniProt P06681 21-752).
T4 sequence: T1 sequence with I418A, A434D

Changes are numbered by the printed parent chain.

By Kd is commonly meant a measure of binding affinity in units of concentration. A low value points to tighter binding.

B1: RF16-226 (antibody, human IgG4 S228P, lambda)
heavy: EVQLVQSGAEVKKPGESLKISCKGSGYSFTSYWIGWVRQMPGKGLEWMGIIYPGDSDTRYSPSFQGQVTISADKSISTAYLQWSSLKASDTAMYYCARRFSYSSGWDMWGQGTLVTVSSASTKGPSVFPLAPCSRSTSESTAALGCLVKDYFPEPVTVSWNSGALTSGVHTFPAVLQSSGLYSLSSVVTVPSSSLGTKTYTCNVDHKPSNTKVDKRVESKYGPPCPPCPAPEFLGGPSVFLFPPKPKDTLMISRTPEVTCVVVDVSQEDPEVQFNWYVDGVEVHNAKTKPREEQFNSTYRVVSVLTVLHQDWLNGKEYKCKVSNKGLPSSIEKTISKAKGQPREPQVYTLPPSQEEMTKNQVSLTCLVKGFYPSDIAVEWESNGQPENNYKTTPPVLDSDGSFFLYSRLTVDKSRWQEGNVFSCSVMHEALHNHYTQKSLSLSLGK
light: SYELTQPPSVSVSPGQTARITCSGDALTSKYVAWYQQKSGLAPLLVIYEDTRRPSGIPAKFSGSSSGSVATLTISGAHGDDEADYYCYSTDASGHQRVFGGGTKLTVLSQPKAAPSVTLFPPSSEELQANKATLVCLISDFYPGAVTVAWKADGSPVKAGVETTKPSKQSNNKYAASSYLSLTPEQWKSHRSYSCQVTHEGSTVEKTVAPTECS
notes: pH-dependent anti-C2 antibody from a phage display library; also called WT
Consider B1, for which the Kd stood at 247 nM in the assay with human C2 D454A, 51.5 nM with human C2 N621A, 14.2 nM with human C2 S473A and 8.7 nM in the assay with human C2 I438A.

The values above are taken from patent US20220332804A1 (CSL INNOVATION, published 2022).
